Patent US20230346948A1, “Lipid conjugated peptide inhibitors of PICK1” (University of Copenhagen, priority 2020, published 2023)

What was measured:
purified PICK1 = target: T1, purified PICK1 (Rattus norvegicus, UniProt Q9EP80); test: Fluorescence polarization competition, substituted peptide libraries; assay type: binding; settings: relative to HWLKV; tracer 5FAM-HWLKV 20 nM
T1 construct: Full length rat PICK1 (pET41) was prepared as described earlier; inferred from pET41 vector and Glutathione-Sepharose capture) (N, cleaved yes); made in house; host or cells: E. coli BL21-DE3-pLysS
Procedure: Full length rat PICK1 (pET41) was prepared as described earlier (Madsen et al., 2005). In brief, PICK1 was expressed in BL21-DE3-pLysS cells and grown at 37° C., induced at OD600=0.6 with 1 mM Isopropyl β-D-1-thiogalactopyranoside (IPTG) and grown 16 hrs at 20° C. Cultures were harvested and re-suspended in 50 mM trisaminomethane (Tris), 125 mM NaCl, 2 mM Dithiothreitol (DTT, Sigma), 1% Triton X-100 (Sigma), 20 μg/mL DNAse 1 and ½ a tablet cOmplete protease inhibitor cocktail (Roche) pr. 1 L culture. The re-suspended pellets were frozen at −80° C. for later purification. The lysate was cleared by centrifugation (36,000×g for 30 min at 4° C.), and the supernatant was incubated with Glutathione-Sepharose 4B beads (GE Healthcare) for 2 hrs at 4° C. under gentle rotation and then centrifuged at 4,000×g for 5 min. The supernatant was removed and the beads were washed twice in 35 mL 50 mM Tris, 125 mM NaCl, 2 mM DTT and 0.01% Triton-X100. The beads were transferred to PD-10 Bio-Spine Chromatography columns (Bio-Rad) and washed with an additional 3 column volumes. Each column was sealed and 0.075 U/μL, Novagen® was added for cleavage 0/N at 4° C. under gentle rotation. PICK1 was eluted on ice and absorption at 280 nm was measured on TECAN plate reader or on a NanoDrop3000. The protein concentration was determined using lambert beers law (A=εcl), εA280PICK1=32320 (cm*mol/L)^−1.
The plate was incubated 20 min on ice in a black half-area Corning Black non-binding surface 96-well plate and the fluorescence polarization was measured directly on a Omega POLARstar plate reader using excitation filter at 488-nm and long pass emission filter at 535-nm.

[1] = Plasma exposure of biotinylated peptide after s.c. injection, ELISA; assay type: in vivo, mice; settings: male, C57bl6N, mouse, sc, s.c. 10 μmol/kg, read-out: time of peak plasma concentration (converted)
Procedure: Blood sample collection. Biotinylated TAT-di-PEG4-DATC5 (biot-TPD5; 34 mg/kg=[…]) or Biotinylated myr-di-PEG4-DATC5 (biot-mPD5; […]) diluted in 0.9% NaCl was injected s.c in 8 weeks old male C57bl6N mice (18 mice in total) once, and blood samples were collected after 15 min, 30 min, 1 h, 2 h and 6 h (blood samples from 6 mice per timepoint) using Aprotinine-containing BD Vacutainer®K3EDTA tubes (BD Diagnostics). The blood samples were centrifuged at 3500 RPM for 15 min at 4° C. and the plasma was collected in new tubes and freezed down at −20° C.
ELISA. A 96 well NUNC IMMOBILIZER (Cat. No. 436006) plate was coated with 15 μg/mL […] (Sigma-Aldrich, Product no. A8549) diluted in 100 mM sodium carbonate buffer (pH 9.6) and incubated for 2 h at room temperature on shaker. After incubation the plate was washed with PBS-T (1× phosphate buffered saline with 0.1% TWEEN® 20 (Sigma-Aldrich)) 3×, 1 washing step overnight at room temperature on shaker. […] The plate was read at 450 nm (and 570 nm) on a Wallac VICTOR2 1420 Multilabel Counter from PerkinElmer (Hvidovre, Denmark). The measured absorbance was calibrated to a standard curve generated from standard dilutions of biot-TPD5.

[2] = system: diabetic neuropathy (STZ model); settings: 5MPK, at +2 h
Procedure: Diabetic neuropathy (STZ) model. Diabetes is induced by a single IP injection of […]. Streptozocin solution (100 μl/10 g, Sigma-aldrich S0130, batch #WXBB7152V). Glycemia is tested before, and 7 days after injection.
The mechanical threshold response of the operated mice was measured with calibrated von Frey filaments (“up/down” method) and the 50% threshold (g) was calculated. The experimenter was blinded to mice treatment. […] Compounds were diluted in PBS (vehicle) and administered s.c. at 10 μL/g, in doses as indicated (gabapentine, 5MPK). Statistical analysis was performed using GraphPad Prism 6.0.

T1 sequence (Q9EP80 whole entry): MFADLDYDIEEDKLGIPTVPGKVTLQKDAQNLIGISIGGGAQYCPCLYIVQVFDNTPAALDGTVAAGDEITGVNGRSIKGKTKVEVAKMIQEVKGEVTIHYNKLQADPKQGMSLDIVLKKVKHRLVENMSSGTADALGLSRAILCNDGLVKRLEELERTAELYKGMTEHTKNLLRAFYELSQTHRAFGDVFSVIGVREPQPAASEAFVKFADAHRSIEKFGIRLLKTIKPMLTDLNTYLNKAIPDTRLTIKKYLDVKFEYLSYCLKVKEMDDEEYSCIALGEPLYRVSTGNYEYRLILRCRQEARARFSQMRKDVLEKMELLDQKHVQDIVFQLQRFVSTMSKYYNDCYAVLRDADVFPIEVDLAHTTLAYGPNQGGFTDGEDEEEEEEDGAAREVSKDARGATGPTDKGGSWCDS

Compound	fold affinity change, combinatorial peptide library (purified PICK1)	further results
TSIRV (DAT-C5 variant) [5-mer peptide of combinatorial library]	optimal 5-mer sequences	
CC(C)C[C@H](NC(=O)[C@H](Cc1c[nH]c2ccccc12)NC(=O)[C@H](Cc1c[nH]cn1)NC(=O)CCOCCOCCN(CCOCCOCCC(=O)N[C@@H](Cc1c[nH]cn1)C(=O)N[C@@H](Cc1c[nH]c2ccccc12)C(=O)N[C@@H](CC(C)C)C(=O)N[C@@H](CCCCN)C(=O)N[C@H](C(=O)O)C(C)C)C(=O)[C@H](CCCNC(=N)N)NC(=O)[C@H](CCCNC(=N)N)NC(=O)[C@H](CCCNC(=N)N)NC(=O)[C@H](CCC(N)=O)NC(=O)[C@H](CCCNC(=N)N)NC(=O)[C@H](CCCNC(=N)N)NC(=O)[C@H](CCCCN)NC(=O)[C@H](CCCCN)NC(=O)[C@H](CCCNC(=N)N)NC(=O)CNC(=O)[C@H](Cc1ccc(O)cc1)NC(=O)CCCC[C@@H]1SC[C@@H]2NC(=O)N[C@@H]21)C(=O)N[C@@H](CCCCN)C(=O)N[C@H](C(=O)O)C(C)C [biotinylated Tat-NPEG4-(HWLKV)2]		Tmax [1]: 30 min
EIRV (DAT-C5 variant) [4-mer peptide of combinatorial library]	optimal 4-mer sequences	
IRV [3-mer peptide of combinatorial library]	optimal 3-mer sequences	
CC(C)C[C@H](CN)CC(=O)O [Pregabalin, reference compound]		maximum reversal of mechanical response threshold [2]: 84.7±10.5 % of baseline
NSVRV (DAT-C5 variant) [5-mer peptide of combinatorial library]	optimal 5-mer sequences	
IIV [3-mer peptide of combinatorial library]	optimal 3-mer sequences	
YIIV (DAT-C5 variant) [4-mer peptide of combinatorial library]	optimal 4-mer sequences	
